Reference: patent publication US12269880B2, “LAG3 binding peptides” (Leidos, Inc., priority 2019, dated 2025)
Values joined by “and” are separate entries in the source; they are usually repeats but may differ in a detail not shown here. Equal entries are not always repeated.

Tests used:
[1] = target: T1, LAG3/MHC-II interaction (Homo sapiens, UniProt P18627); assay: HTRF LAG3/MHC-II binding assay (Cisbio)
T1 construct: purchased Cisbio US Inc
T1 sequence (P18627 23-450 limits assumed): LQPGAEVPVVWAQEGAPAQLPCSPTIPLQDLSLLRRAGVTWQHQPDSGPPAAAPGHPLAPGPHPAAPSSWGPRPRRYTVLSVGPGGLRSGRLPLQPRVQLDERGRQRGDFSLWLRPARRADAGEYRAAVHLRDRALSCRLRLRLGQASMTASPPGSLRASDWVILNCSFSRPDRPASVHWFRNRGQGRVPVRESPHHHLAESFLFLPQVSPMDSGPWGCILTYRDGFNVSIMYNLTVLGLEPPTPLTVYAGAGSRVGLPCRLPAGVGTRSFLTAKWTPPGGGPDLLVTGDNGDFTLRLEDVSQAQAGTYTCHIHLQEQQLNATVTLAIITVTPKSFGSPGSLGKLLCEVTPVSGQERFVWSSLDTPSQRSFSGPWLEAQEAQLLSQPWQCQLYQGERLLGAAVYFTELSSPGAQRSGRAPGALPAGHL
Description: FIG. 2 is a graph showing the results of a homogeneous time-resolved fluorescence (HTRF) assay for peptide LAG3-11. Reference Ab-LAG3 is an anti-LAG3 antibody. OVA, the ovalbumin (OVA) peptide (ISQAVHAAHAEINEAGR, SEQ ID NO:8). “HTRF ratio” is the emission at 665 nm (acceptor)/emission at 620 nm (donor) multiplied by a factor or 10^4.
A homogeneous time-resolved fluorescence (HTRF) LAG3/MHC-II binding assay (Cisbio US Inc.) was used to measure the interaction between MHC-II and LAG3 in the presence of peptides. In this assay, the interaction between Tag1-LAG3 and Tag2-MHC-II is detected by using anti-Tag1-Terbium (HTRF donor) and anti-Tag2-XL665 (HTRF acceptor). When the donor and acceptor antibodies are brought into close proximity due to LAG3 and MHC-II binding, excitation of the donor antibody triggers fluorescent resonance energy transfer (FRET) towards the acceptor antibody, which in turn emits specifically at 665 nm. This specific signal is directly proportional to the extent of LAG3/MHC-II interaction. Thus, an agent that blocks the interaction between LAG3 and MHC-II will cause a reduction in HTRF ratio.
An anti-human LAG3 antibody (Novoprotein #GMP-A092, Lot 0331158, 500 nM) was tested in the assay at an eleven-point, serially diluted semi-log dose response curve starting at 100 nM and served as a positive control. The ovalbumin peptide was used as a negative control. Peptides were reconstituted at a concentration of 20 mM in […] and tested at an eleven-point dose response curve starting at 100 µM followed by 4-fold dilutions. […]

[2] = target: T2, soluble recombinant human LAG3 (Homo sapiens, UniProt P18627); assay: Clonal phage ELISA after phage display bio-panning; format: binding; details: for Clonal Phase ELISA uncoated signal: uncoated (background)
T2 construct: soluble recombinant human LAG3
T2 sequence (P18627 23-450 limits assumed): T1 sequence (P18627 23-450 limits assumed)
Description: The TriCo-20™, TriCo-16™, Ph.D.-12™, and Ph.D. C7™ Phage Display Peptide Libraries (Creative Biolabs, 45-1 Ramsey Road, Shirley, NY 11967) were screened by performing several rounds of bio-panning to identify binders of soluble recombinant human LAG3.

[3] = target: T3, human LAG3/FGL1 (Homo sapiens, UniProt P18627); assay: Human LAG3/FGL1 TR-FRET binding assay (BPS Bioscience)
T3 construct: purchased BPS Bioscience
T3 sequence (P18627 23-450 limits assumed): T1 sequence (P18627 23-450 limits assumed)
Procedure: The peptides were tested using a human LAG3/FGL1 TR-FRET binding assay (BPS Bioscience) carried out according to the manufacturer's instructions.
Peptide stocks of LAG3-11, LAG3-42, LAG3-48, LAG3-51, LAG3-54, LAG3-56, LAG3-60 and OVA were prepared at 1 mM followed by a 1:5 dilution in plate reactions. LAG3-11 and OVA were tested at 200, 50, 13, 3, 0.8, 0.2, 0.05, and 0.01 μM. The other peptides were tested at 200, 50, 13, and 3 μM. A neutralizing anti-human LAG3 antibody (BPS Bioscience Cat. #71219) was used as a positive control.
Reaction mixes were incubated 1 hr at RT before development. After development, plate was read in a Tecan M1000 TR-FRET instrument. Percent activity was calculated as follows: % Activity=100×[(sample−minimum)/(maximum−minimum)]

[4] = LOG [Compound] M tested for peptide −4, single replicates
[5] = LOG [Compound] M tested for peptide −4.60206, single replicates
[6] = LOG [Compound] M tested for peptide −5.20412, single replicates
[7] = LOG [Compound] M tested for peptide −5.80618, single replicates
[8] = LOG [Compound] M tested for peptide −6.40824
[9] = LOG [Compound] M tested for peptide −7.0103, single replicates
[10] = LOG [Compound] M tested for peptide −7.61236, single replicates
[11] = LOG [Compound] M tested for peptide −8.21442, single replicates
[12] = LOG [Compound] M tested for peptide −8.81648, single replicates
[13] = LOG [Compound] M tested for peptide −9.41854, single replicates
[14] = LOG [Compound] M tested for peptide −10.0206
[15] = LOG [Compound] M tested for peptide −10.6227

| Sequence | HTRF ratio [1, 4] | HTRF ratio [1, 5] | HTRF ratio [1, 6] | HTRF ratio [1, 7] | HTRF ratio [1, 8] | HTRF ratio [1, 9] | HTRF ratio [1, 10] | HTRF ratio [1, 11] | HTRF ratio [1, 12] | HTRF ratio [1, 13] | HTRF ratio [1, 14] | HTRF ratio [1, 15] | Clonal Phase ELISA coated signal [2] | Clonal Phase ELISA uncoated signal [2] | inhibition of the interaction between human LAG3 and FGL1 [3] |
| --- | --- | --- | --- | --- | --- | --- | --- | --- | --- | --- | --- | --- | --- | --- | --- |
| ISQAVHAAHAEINEAGR (listed as Gallus gallus) [OVA peptide, reference compound] | 7154 and 8492 and 8909 | 8449 and 8472 and 8683 | 9015 and 8616 and 8579 | 9180 and 8833 and 9374 | 9189 and 8634 and 9280 | 8380 and 8654 and 8970 | 9015 and 8776 and 8568 | 9219 and 8624 and 8987 | 8684 and 8724 and 8639 | 8625 and 8396 and 8788 | 8356 and 8986 and 8457 | 8633 and 9086 and 8892 | – | – | – |
| FYSPNHEEYHDWNVDSSVNE (LAG3-48 peptide) | 3507 and 2809 and 3028 | 5662 and 5088 and 5724 | 8301 and 8213 and 8200 | 8663 and 9082 and 9045 | 9264 and 9194 and 9135 | 8727 and 9103 and 9142 | 8936 and 9357 and 9297 | 9082 and 9139 and 9095 | 8708 and 9153 and 8757 | 8564 and 8922 and 8442 | 8765 and 9097 and 8602 | 8663 and 8904 and 9303 | 0.227 | 0.094 | – |
| HIQNWSYWLNQDMMNQQVWKS (LAG3-56 peptide) | 4194 and 4083 and 4373 | 6880 and 7058 and 7142 | 8218 and 8349 and 8414 | 8791 and 8658 and 8464 | 9040 and 9185 and 9082 | 8147 and 9275 and 9111 | 8935 and 9303 and 9093 | 8765 and 9591 and 9178 | 8856 (2×) and 8869 | 9050 and 9029 and 9176 | 9022 and 8887 and 8540 | 8885 and 9204 and 8617 | 0.529 | 0.101 | inhibit the interaction between human LAG3 and FGL1 |
| DWNFQQWDWKKHNHLDSHVV (LAG3-42 peptide) | 7234 and 7037 and 7142 | 8389 and 8097 and 8045 | 8629 and 8765 and 8733 | 9281 and 8905 and 8572 | 9189 and 8945 and 8784 | 9432 and 8649 and 9072 | 9209 and 8787 and 9109 | 9407 and 8205 and 9247 | 9579 and 9134 and 8703 | 9137 and 8550 and 8958 | 8860 and 8937 and 8907 | 9016 and 8914 and 9210 | 0.378 | 0.084 | – |

Further lines, with some results ahead:

| HTRF ratio [1, 4] | HTRF ratio [1, 5] | HTRF ratio [1, 6] | HTRF ratio [1, 7] | HTRF ratio [1, 8] | HTRF ratio [1, 9] | HTRF ratio [1, 10] | HTRF ratio [1, 11] | HTRF ratio [1, 12] | HTRF ratio [1, 13] | HTRF ratio [1, 14] | HTRF ratio [1, 15] | Clonal Phase ELISA coated signal [2] | Clonal Phase ELISA uncoated signal [2] | Sequence | inhibition of the interaction between human LAG3 and FGL1 [3] |
| --- | --- | --- | --- | --- | --- | --- | --- | --- | --- | --- | --- | --- | --- | --- | --- |
| 2986 and 3079 | 5934 and 5959 and 5991 | 8233 and 7988 and 7918 | 8525 and 8398 and 8342 | 8614 and 8929 and 9290 | 9142 and 8745 and 8892 | 8987 and 8983 and 9320 | 9275 and 8931 and 9366 | 9059 and 9248 and 8887 | 8772 and 8594 and 9169 | 8924 and 8349 and 8904 | 8795 and 9240 and 9350 | 0.330 | 0.091 | HESGSVPHPWQFFTHYVS (LAG3-60 peptide) | – |
| 2283 and 4122 and 3912 | 7055 and 6709 and 6833 | 8691 and 8561 and 8512 | 9156 and 9205 and 9142 | 9161 and 9048 and 8773 | 9105 and 9141 and 9004 | 8674 and 9031 and 9075 | 8996 and 8645 and 8867 | 8130 and 8918 and 8630 | 8942 and 8930 and 8755 | 8344 and 9203 and 8748 | 9100 and 9262 and 8921 | 0.417 | 0.103 | ACGPGSFGDCGGG (LAG3-54 peptide) | – |
| 3058 and 2773 and 2875 | 6649 and 6521 and 6468 | 7908 and 8071 and 8322 | 8723 and 8946 and 8748 | 9265 and 8583 and 8662 | 8098 and 9193 and 9017 | 8762 and 9360 and 9173 | 8950 and 8608 and 8357 | 8834 and 8187 and 8957 | 8867 and 8809 and 8630 | 8784 and 8779 and 8696 | 9082 and 9104 and 9298 | 0.234 | 0.076 | KVWQVPQDTQHWLSPNFYSV (LAG3-51 peptide) | – |
